Measured values as given in patent publication US20200332006A1 (ULTRAHUMAN NINE, published 2020).

Columns and labels:
[1] = biological target: T1, human CD20, expressed on HEK293 cells (human, UniProt P11836 1-297); assay: flow cytometry on transfected HEK293 cells, 2 ug/ml IgG
T1 construct: whole, on cells
T1 sequence (looked up): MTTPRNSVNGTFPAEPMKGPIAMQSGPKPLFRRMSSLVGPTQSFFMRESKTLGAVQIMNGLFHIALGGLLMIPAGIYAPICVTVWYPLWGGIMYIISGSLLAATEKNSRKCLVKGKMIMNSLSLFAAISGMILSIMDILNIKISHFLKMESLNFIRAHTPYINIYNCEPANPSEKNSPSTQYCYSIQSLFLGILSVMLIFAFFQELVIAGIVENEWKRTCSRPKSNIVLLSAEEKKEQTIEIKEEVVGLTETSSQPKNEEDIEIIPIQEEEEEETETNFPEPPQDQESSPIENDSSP
Method: (§1) FIG. 11. […] Analyses of binding specificity were performed on HEK293 cells transiently transfected with plasmids encoding either human PD1, human BTN2A1, human LSAMP, human CD20 or ZS green marker only. Each antibody was used in staining at […] concentration and histograms are indicated per antibody in this figure.
(§2) Human cell membrane receptor proteome arrays were performed at Retrogenix Ltd. Primary screens: 2 μg/ml of each antibody was screened for binding against fixed HEK293 cells/slides expressing 5528 human plasma membrane and tethered secreted proteins individually. […] Antibody binding was detected using AF647 fluorescent secondary anti-human IgG1 antibody. Primary hits (duplicate spots) were identified by analysing fluorescence (AF647 and ZsGreen1) on ImageQuant. Confirmation/specificity screens: Expression vectors encoding ZsGreen1 only, or ZsGreen1 and CD20, PD1, BTN2A1, or LSAMP were transfected into human HEK293 cells. […] Cells were washed, and incubated with the same AF647 anti-human IgG Fc detection antibody as used in the cell microarray screens. Cells were again washed, and analysed by flow cytometry using an Accuri flow cytometer (BD). A 7AAD live/dead dye was used to exclude dead cells, and ZsGreen1-positive cells (i.e. transfected cells) were selected for analyses.

[2] = biological target: T2, human LSAMP, expressed on HEK293 cells (human, UniProt Q13449 29-315); assay: as above
T2 construct: also called BC033803
T2 sequence: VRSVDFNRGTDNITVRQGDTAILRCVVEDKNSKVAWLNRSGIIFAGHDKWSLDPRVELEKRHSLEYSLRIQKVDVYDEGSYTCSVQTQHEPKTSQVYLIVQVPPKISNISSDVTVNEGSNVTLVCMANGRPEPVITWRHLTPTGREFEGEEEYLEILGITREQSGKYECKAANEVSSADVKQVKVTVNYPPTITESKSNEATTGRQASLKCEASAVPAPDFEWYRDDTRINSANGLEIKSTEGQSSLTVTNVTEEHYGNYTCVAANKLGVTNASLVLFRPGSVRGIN
Method: as §1, §2

[3] = biological target: T3, human BTN2A1, expressed on HEK293 cells (human, UniProt Q7KYR7 29-527); assay: as above
T3 construct: also called NM_007049
T3 sequence: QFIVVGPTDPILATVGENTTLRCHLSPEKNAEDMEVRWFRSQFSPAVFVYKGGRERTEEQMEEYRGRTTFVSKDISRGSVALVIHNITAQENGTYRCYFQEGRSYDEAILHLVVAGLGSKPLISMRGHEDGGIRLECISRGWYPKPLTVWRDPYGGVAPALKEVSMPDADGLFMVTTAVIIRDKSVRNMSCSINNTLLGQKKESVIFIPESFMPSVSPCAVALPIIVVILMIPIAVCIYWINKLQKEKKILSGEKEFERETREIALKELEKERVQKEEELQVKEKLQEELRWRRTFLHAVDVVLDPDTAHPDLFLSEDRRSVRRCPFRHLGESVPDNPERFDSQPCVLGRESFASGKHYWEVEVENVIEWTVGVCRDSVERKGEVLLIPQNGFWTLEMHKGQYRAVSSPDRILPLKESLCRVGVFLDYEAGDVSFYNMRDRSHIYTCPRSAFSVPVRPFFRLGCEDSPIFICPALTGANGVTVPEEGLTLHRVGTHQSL
Method: as §1, §2

[4] = biological target: T1, human CD20, expressed on HEK293 cells; assay: flow cytometry on live transfected HEK293 cells
Method: as §1, §2

[5] = biological target: T2, human LSAMP, expressed on HEK293 cells; assay: flow cytometry on live transfected HEK293 cells
Method: as §1, §2

[6] = biological target: T4, human PD1, membrane-expressed on transfected cells (CHO-K1 stable line, HEK293 transfectants, PD1 effector … (human, UniProt Q15116 25-288)); assay: Retrogenix cell microarray, fixed HEK293 cells, 2 ug/ml IgG
T4 construct: also called PD1 (PDCD1) NM_005018; membrane-presented human PD1
T4 sequence (Q15116 25-288 limits assumed): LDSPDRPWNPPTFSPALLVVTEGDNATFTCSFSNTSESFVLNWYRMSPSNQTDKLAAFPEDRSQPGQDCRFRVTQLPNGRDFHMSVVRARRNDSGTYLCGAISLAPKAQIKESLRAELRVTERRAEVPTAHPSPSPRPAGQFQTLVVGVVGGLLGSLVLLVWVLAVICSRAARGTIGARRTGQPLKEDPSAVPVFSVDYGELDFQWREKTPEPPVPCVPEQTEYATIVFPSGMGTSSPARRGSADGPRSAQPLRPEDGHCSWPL

[7] = biological target: T3, human BTN2A1, expressed on HEK293 cells; assay: Retrogenix cell microarray, fixed HEK293 cells
Method: as §2

[8] = biological target: T5, cynomolgus monkey PD1, membrane-expressed on CHO-K1 stable cell line (cynomolgus monkey, UniProt Q15116 25-288 (human entry)); assay: flow cytometry on CHO cells stably transfected with cyno PD1 (reference antibody)
T5 construct: Genscript cell line M00572; also called membrane-presented cyno PD1
T5 chain: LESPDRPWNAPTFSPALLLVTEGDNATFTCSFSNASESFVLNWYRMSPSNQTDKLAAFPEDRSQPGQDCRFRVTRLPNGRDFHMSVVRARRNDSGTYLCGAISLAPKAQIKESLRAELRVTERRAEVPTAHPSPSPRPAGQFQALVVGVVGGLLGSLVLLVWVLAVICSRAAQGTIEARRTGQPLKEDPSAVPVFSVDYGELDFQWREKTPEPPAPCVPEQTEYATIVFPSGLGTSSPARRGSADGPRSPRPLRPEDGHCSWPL
Method: The IgG samples were titrated in three-fold serial dilutions starting at 500 nM to 0.98 nM. Binding of IgGs was detected with a mouse anti-human IgG conjugated to FITC. Results were analyzed by examining the Mean Fluorescence Intensity (MFI) of 10000 cells per sample in the BL-1 channel detector of a flow cytometer (Attune™ NxT Acoustic Focusing Cytometer, Invitrogen/ThermoFisher Scientific).
Antibodies to PD1 were analysed for concentration-dependent binding at the cell surface via flow cytometry. Initial analyses were performed on CHO cells stably-transfected with human or cyno PD1.

fold fluorescence change versus mock (ZSgreen only) cells [1]: 1.4 fold
fold fluorescence change versus mock (ZSgreen only) cells [2]: 1.5 fold
fold fluorescence change versus mock (ZSgreen only) cells [3]: 1.2 fold
binding result [4]: no binding (tested: 2 ug/ml)
binding result [5]: no binding (tested: 2 ug/ml)
binding result [6]: binds
binding result [7]: no binding (tested: 2 ug/ml)
binding result [8]: binds
B1: Hu317 humanized anti-PD1 antibody, IgG1null format (antibody, V domains shown)
VH: QVQLQESGPGLVKPSETLSLTCTVSGFSLTSYGVHWIRQPPGKGLEWIGVIYADGSTNYNPSLKSRVTISKDTSKNQVSLKLSSVTAADTAVYYCARAYGNYWYIDVWGQGTTVTVSS
VL: DIVMTQSPDSLAVSLGERATINCKSSESVSNDVAWYQQKPGQPPKLLINYAFHRFTGVPDRFSGSGYGTDFTLTISSLQAEDVAVYYCHQAYSSPYTFGQGTKLEIK
notes: Tested as IgG1null (human IgG1 L234A, L235A, G237A) with human Ckappa; also called hu317 IgG1
